Earlier results in patent US8541373B2, “BChE albumin fusions for the treatment of cocaine abuse” (priority 2009, dated 2013).
Changes are numbered by the printed parent chain. Names may count otherwise.

B1: A328W/Y332A (protein, UniProt P06276 29-602, looked up, variant A328W Y332A)
Cholinesterase: EDDIIIATKNGKVRGMNLTVFGGTVTAFLGIPYAQPPLGRLRFKKPQSLTKWSDIWNATKYANSCCQNIDQSFPGFHGSEMWNPNTDLSEDCLYLNVWIPAPKPKNATVLIWIYGGGFQTGTSSLHVYDGKFLARVERVIVVSMNYRVGALGFLALPGNPEAPGNMGLFDQQLALQWVQKNIAAFGGNPKSVTLFGESAGAASVSLHLLSPGSHSLFTRAILQSGSFNAPWAVTSLYEARNRTLNLAKLTGCSRENETEIIKCLRNKDPQEILLNEAFVVPYGTPLSVNFGPTVDGDFLTDMPDILLELGQFKKTQILVGVNKDEGTWFLVAGAPGFSKDNNSIITRKEFQEGLKIFFPGVSEFGKESILFHYTDWVDDQRPENYREALGDVVGDYNFICPALEFTKKFSEWGNNAFFYYFEHRSSKLPWPEWMGVMHGYEIEFVFGLPLERRDNYTKAEEILSRSIVKRWANFAKYGNPNETQNNSTSWPVFKSTEQKYLTLNTESTRIMTKLRAQQCRFWTSFFPKVLEMTGNIDEAEWEWKAGFHRWNNYMMDWKNQFNDYTSKKESCVGL
B2: A227S/S315G/A356W/Y360G (protein, UniProt P06276 29-602, looked up, variant A227S S315G A356W Y360G)
Cholinesterase: B1 Cholinesterase with A199S, S287G, A332G

Conditions: cited from earlier work

Molecule	kcat relative to wild-type BChE (cocaine hydrolase activity) [fold]	Catalytic efficiency relative to wild-type BChE (hydrolysis of cocaine) [fold]
B1	40	
B2		500
